Paper PMC7822847, “Structural insights into vesicle amine transport-1 (VAT-1) as a member of the NADPH-dependent quinone oxidoreductase family” (Scientific Reports, 2021)

B1: N-truncated human VAT-1 (43–393 residues) (domain or fragment, UniProt Q99536 43-393, looked up)
chain: ASPPLLRCLVLTGFGGYDKVKLQSRPAAPPAPGPGQLTLRLRACGLNFADLMARQGLYDRLPPLPVTPGMEGAGVVIAVGEGVSDRKAGDRVMVLNRSGMWQEEVTVPSVQTFLIPEAMTFEEAAALLVNYITAYMVLFDFGNLQPGHSVLVHMAAGGVGMAAVQLCRTVENVTVFGTASASKHEALKENGVTHPIDYHTTDYVDEIKKISPKGVDIVMDPLGGSDTAKGYNLLKPMGKVVTYGMANLLTGPKRNLMALARTWWNQFSVTALQLLQANRAVCGFHLGYLDGEVELVSGVVARLLALYNQGHIKPHIDSVWPFEKVADAMKQMQEKKNVGKVLLVPGPEKEN
notes: Written as the protomer; homodimer in both crystal forms, dimer to tetramer (dimer-dimer) in solution by SEC; also called vesicle amine transport protein-1; source: E. coli Rosetta 2 (DE3), purified (Glutathione Sepharose, HRV 3C cleavage, HiTrap SP, Superdex 200); not shown: GST, N-terminal, cleaved
B2: human VAT-1 (full-length, 1–393 residues) (natural protein, UniProt Q99536 1-393, looked up)
chain: MSDEREVAEAATGEDASSPPPKTEAASDPQHPAASEGAAAAAASPPLLRCLVLTGFGGYDKVKLQSRPAAPPAPGPGQLTLRLRACGLNFADLMARQGLYDRLPPLPVTPGMEGAGVVIAVGEGVSDRKAGDRVMVLNRSGMWQEEVTVPSVQTFLIPEAMTFEEAAALLVNYITAYMVLFDFGNLQPGHSVLVHMAAGGVGMAAVQLCRTVENVTVFGTASASKHEALKENGVTHPIDYHTTDYVDEIKKISPKGVDIVMDPLGGSDTAKGYNLLKPMGKVVTYGMANLLTGPKRNLMALARTWWNQFSVTALQLLQANRAVCGFHLGYLDGEVELVSGVVARLLALYNQGHIKPHIDSVWPFEKVADAMKQMQEKKNVGKVLLVPGPEKEN
notes: Written as the protomer; dimer at low concentration, tetramer at 300 µM by SEC; also called vesicle amine transport protein-1; source: E. coli Rosetta 2 (DE3), purified (Glutathione Sepharose, HRV 3C cleavage, HiTrap SP, Superdex 200); not shown: GST, N-terminal, cleaved

Key:
[1] = target: the molecule itself; assay: crystal structure; free form of VAT-1 (43–393), 2.3 Å; crystals from 100 mM BisTris pH 6.0, 200 mM sodium nitrate, 22% PEG 3350, 20 °C
[2] = target: the molecule itself; assay: SEC; Superdex 200 (10/30), 10 mM Tris–HCl pH 7.2, 100 mM NaCl, 0.5 mM TCEP, 8 °C; higher concentrations (loaded at 300 µM, no NADP); dimers to tetramer (dimer–dimer)
[3] = target: the molecule itself; assay: SEC; Superdex 200 (10/30), 10 mM Tris–HCl pH 7.2, 100 mM NaCl, 0.5 mM TCEP, 8 °C; low concentration (samples loaded at 10, 20, 50 µM; also with 10-fold molar NADP); monomers to dimer

Protein	stoichiometry N [1]	stoichiometry N [2]	stoichiometry N [3]
B1	2	–	–
B2	–	4	2
